Laboratory results as given in PMC3154154.

Columns and labels:
[1] = biological target: L19 IgG control antibody (unmodified, without linker) (human); test: SPR; Biacore T100; L19 IgG or modified versions immobilised on a CM5 chip treated with antibody capture kit; soluble Fc receptor fragments as analytes at 1.56 - 50 nM; association and dissociation kinetics used to calculate the dissociation constant
[2] = biological target: L19 IgG-GyrA after EPL (cleaved with Mesna, cysteine as probe) (human); test: as above
Chain of L19 IgG-GyrA after EPL (cleaved with Mesna, cysteine as probe) (human) (heavy, as listed by the source, chain 1 of 2): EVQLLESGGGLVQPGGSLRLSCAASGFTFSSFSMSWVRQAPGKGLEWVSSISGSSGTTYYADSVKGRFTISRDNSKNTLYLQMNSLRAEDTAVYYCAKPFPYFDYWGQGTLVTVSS
Chain of L19 IgG-GyrA after EPL (cleaved with Mesna, cysteine as probe) (human) (light, as listed by the source, chain 2 of 2): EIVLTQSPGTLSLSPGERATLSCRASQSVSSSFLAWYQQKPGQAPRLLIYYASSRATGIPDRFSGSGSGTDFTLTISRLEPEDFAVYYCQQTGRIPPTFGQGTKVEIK

[3] = biological target: L19 IgG-DnaEN after PTS (trans-spliced with DnaEC peptide without a probe) (human); test: as above
Chain of L19 IgG-DnaEN after PTS (trans-spliced with DnaEC peptide without a probe) (human) (heavy, as listed by the source, chain 1 of 2): as the sequence (heavy, as listed by the source, chain 1 of 2) above
Chain of L19 IgG-DnaEN after PTS (trans-spliced with DnaEC peptide without a probe) (human) (light, as listed by the source, chain 2 of 2): as the sequence (light, as listed by the source, chain 2 of 2) above

[4] = biological target: L19 IgG after PTS (L19 IgG-DnaEN trans-spliced with DnaEC peptide without a probe) (human); test: SPR; Biacore T100; L19 IgG or modified versions immobilized on a CM5 chip treated with antibody capture kit; soluble Fc receptor fragments 1.56 - 50 nM as analytes; KD calculated from association and dissociation kinetics
Chain of L19 IgG after PTS (L19 IgG-DnaEN trans-spliced with DnaEC peptide without a probe) (human) (heavy, as listed by the source, chain 1 of 2): as the sequence (heavy, as listed by the source, chain 1 of 2) above
Chain of L19 IgG after PTS (L19 IgG-DnaEN trans-spliced with DnaEC peptide without a probe) (human) (light, as listed by the source, chain 2 of 2): as the sequence (light, as listed by the source, chain 2 of 2) above

[5] = biological target: L19 IgG after EPL (L19 IgG-GyrA cleaved with Mesna and derivatized with cysteine) (human); test: as above
Chain of L19 IgG after EPL (L19 IgG-GyrA cleaved with Mesna and derivatized with cysteine) (human) (heavy, as listed by the source, chain 1 of 2): as the sequence (heavy, as listed by the source, chain 1 of 2) above
Chain of L19 IgG after EPL (L19 IgG-GyrA cleaved with Mesna and derivatized with cysteine) (human) (light, as listed by the source, chain 2 of 2): as the sequence (light, as listed by the source, chain 2 of 2) above

Chain of L19 IgG control antibody (unmodified, without linker) (human) (heavy, as listed by the source, chain 1 of 2): as the sequence (heavy, as listed by the source, chain 1 of 2) above
Chain of L19 IgG control antibody (unmodified, without linker) (human) (light, as listed by the source, chain 2 of 2): as the sequence (light, as listed by the source, chain 2 of 2) above

Row | Substance | Kd [1] [pM] | koff [1] [s⁻¹] | kon [1] [M⁻¹ s⁻¹] | Kd [2] [pM] | koff [2] [s⁻¹] | kon [2] [M⁻¹ s⁻¹] | Kd [3] [pM] | koff [3] [s⁻¹] | kon [3] [M⁻¹ s⁻¹] | Kd [4] [pM] | Kd [5] [pM]
1 | Fcγ RI/CD64, soluble Fc receptor fragment (from UniProt P12314 16-292) | 170 | 0.000168 | 1.02e+06 | 130 | 0.000145 | 1.11e+06 | 210 | 0.000201 | 960000 | – | –
2 | soluble Fc receptor fragment Fcγ RIIIA/CD16a (from UniProt P08637 17-208) | – | – | – | – | – | – | – | – | – | 60000 | 60000
